Experimental data as given in article PMC3484103.

Biological target: GST fused to Las17 fragment P8-12 (GST-P8-12) (S. cerevisiae) (UniProt Q12446)
Test: pull-down

UniProt Q12446, sequence (Q12446 300-404): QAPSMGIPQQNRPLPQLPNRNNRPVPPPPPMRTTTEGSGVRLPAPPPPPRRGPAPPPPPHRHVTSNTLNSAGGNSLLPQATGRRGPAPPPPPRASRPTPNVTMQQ

Substance: hexahistidine-tagged Sla1 fragment spanning the SH3 domains 1 and 2 (His-Sla1-SH3-1-2) (domain or fragment)
- Kd: 0.056 µM
